Experimental data as given in paper PMC2909130 (Biochemistry, 2010).

Target: the molecule itself
Assay: crystal structure

Row | Protein | binding result
1 | ArsD109/C12A/C13A/C39S (domain or fragment, Escherichia coli (plasmid R773), UniProt P46003 1-109, looked up) MKTLMVFDPAMAASTGVCGTDVDQALVDFSTDVQWLKQSGVQIERFNLAQQPMSFVQNEKVKAFIEASGAEGLPLLLLDGETVMAGRYPKRAELARWFGIPLDKVGLAP | binds
2 | ArsD109 (ArsD arsenic metallochaperone of plasmid R773, residues 1-109, wild type) (domain or fragment, Escherichia coli (plasmid R773), UniProt P46003 1-109, looked up) MKTLMVFDPAMCCSTGVCGTDVDQALVDFSTDVQWLKQCGVQIERFNLAQQPMSFVQNEKVKAFIEASGAEGLPLLLLDGETVMAGRYPKRAELARWFGIPLDKVGLAP | binds
